Assay results reported in PMC6154995, “Heme-dependent Inactivation of 5-Aminolevulinate Synthase from Caulobacter crescentus” (Scientific Reports, 2018).

Biological target: the molecule itself
Experiment: SEC + native gel or EMSA; data not shown; purified yellow (PLP) and red (heme) fractions of recombinant cALAS; oligomeric state in solution; conditions not given

Row | Protein | stoichiometry N
1 | 5-aminolevulinate synthase from Caulobacter crescentus, heme form (red form) (enzyme, 5-aminolevulinate synthase (ALAS) of Caulobacter crescentus CB15, gene CC_1355, 408 residues, predicted mass 44,273 Da; gene PCR-amplified from genomic DNA; Same polypeptide as m1; also called cALAS; red form of cALAS; source: E. coli BL21(DE3) pLysS, pET-28b, purified (HisTrap FF Crude, Mono Q; second, reddish-brown eluate of the anion exchange column)) not shown | 2
2 | 5-aminolevulinate synthase from Caulobacter crescentus, PLP form (yellow form) (enzyme, pyridoxal 5'-phosphate (PLP), predicted to bind to the ε-amino group of Lys248, 5-aminolevulinate synthase (ALAS) of Caulobacter crescentus CB15, gene CC_1355, 408 residues, predicted mass 44,273 Da; gene PCR-amplified from genomic DNA; Same polypeptide as m2; also called cALAS; C. crescentus ALAS; source: E. coli BL21(DE3) pLysS, pET-28b, purified (HisTrap FF Crude, Mono Q; first, yellow eluate of the anion exchange column)) not shown | 2
